Measurements: publication PMC11022571, “Functional analysis of feedback inhibition-insensitive aspartate kinase identified in a threonine-accumulating mutant of Saccharomyces cerevisiae” (Applied and Environmental Microbiology, 2024)
Changes are numbered by the printed parent chain. Names may count otherwise.

Columns and labels:
[1] = biological target: T1, Hom3 (aspartate kinase, AK) (Saccharomyces cerevisiae, UniProt P10869); assay: PK/LDH-coupled AK assay at […] Asp and […] ATP; BN-PAGE shift from ~[…] to ~[…] kDa with […] Thr; assay type: biochemical
T1 sequence (P10869 1-527): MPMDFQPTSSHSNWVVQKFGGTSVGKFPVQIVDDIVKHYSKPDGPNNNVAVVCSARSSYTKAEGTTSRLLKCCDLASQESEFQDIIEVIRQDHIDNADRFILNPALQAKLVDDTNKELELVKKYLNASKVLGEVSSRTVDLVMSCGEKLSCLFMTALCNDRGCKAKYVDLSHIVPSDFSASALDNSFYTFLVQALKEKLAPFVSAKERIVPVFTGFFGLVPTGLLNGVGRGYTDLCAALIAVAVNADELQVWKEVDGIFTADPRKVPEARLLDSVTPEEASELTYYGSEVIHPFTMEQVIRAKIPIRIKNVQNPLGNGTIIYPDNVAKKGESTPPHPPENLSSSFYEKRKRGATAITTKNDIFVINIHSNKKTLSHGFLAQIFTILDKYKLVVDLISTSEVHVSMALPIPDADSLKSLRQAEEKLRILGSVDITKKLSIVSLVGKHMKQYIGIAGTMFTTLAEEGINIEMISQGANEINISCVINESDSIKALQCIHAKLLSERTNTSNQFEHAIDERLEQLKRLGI

[2] = substrate: Nc1ncnc2c1ncn2[C@@H]1O[C@H](COP(=O)(O)OP(=O)(O)OP(=O)(O)O)[C@@H](O)[C@H]1O; assay: steady-state kinetics (Km), PK/LDH-coupled assay; assay type: biochemical, Saccharomyces cerevisiae; conditions: Mg2+ ([…] MgSO4 in assay)
[3] = substrate: N[C@@H](CC(=O)O)C(=O)O; assay: steady-state kinetics (Km), PK/LDH-coupled assay; assay type: biochemical, Saccharomyces cerevisiae; conditions: Mg2+ ([…] MgSO4 in assay)

Which IC50 [1] does the source give for `C[C@@H](O)[C@H](N)C(=O)O` [threonine] here?
The IC50 was 5.4 ± 0.12 mM.

B1: Hom3 (aspartate kinase, AK) (Saccharomyces cerevisiae S288C) (protein)
chain: T1 sequence (P10869 1-527)
Which results are given for B1?
Km [2]: 830 ± 44 µM; kcat [2]: 54 ± 0.78 s⁻¹; kcat/Km [2]: 65000 M⁻¹ s⁻¹; Km [3]: 3800 ± 360 µM; kcat [3]: 55 ± 1.5 s⁻¹; kcat/Km [3]: 15000 M⁻¹ s⁻¹

B2: Hom3 (aspartate kinase, AK) (Saccharomyces cerevisiae S288C; A462T) (protein)
chain: T1 sequence (P10869 1-527) with A462T
Which Km [2] does the source give for B2 here?
Its Km is 1000 ± 71 µM.

What about the kcat [2] of the same molecule?
Its kcat is 53 ± 1.1 s⁻¹.

What about the kcat/Km [2] of the same molecule?
The kcat/Km was 51000 M⁻¹ s⁻¹.

What about the Km [3] of the same molecule?
The Km was 4400 ± 370 µM.

And the kcat [3]?
Its kcat is 55 ± 1.4 s⁻¹.

What about the kcat/Km [3] of the same molecule?
The kcat/Km was 13000 M⁻¹ s⁻¹.
